Results taken from PMC9157036.

Target: ferritin-based 24-meric nanoparticle with N-terminal protein A tag
Assay: SPR
Conditions: Fc fusion

RBD (residues 331aa-524aa) of the SARS-CoV-2 Omicron spike protein with an Fc tag in the C-terminus (from UniProt P0DTC2 331-524)
Kd: 187 nM
